Data from patent US20240400703A1 (Genmab, published 2024).

T1: human OX40 expressed on cells (human, UniProt P43489 29-277)
T1 construct: also called CD134; TNFRSF4
T1 sequence: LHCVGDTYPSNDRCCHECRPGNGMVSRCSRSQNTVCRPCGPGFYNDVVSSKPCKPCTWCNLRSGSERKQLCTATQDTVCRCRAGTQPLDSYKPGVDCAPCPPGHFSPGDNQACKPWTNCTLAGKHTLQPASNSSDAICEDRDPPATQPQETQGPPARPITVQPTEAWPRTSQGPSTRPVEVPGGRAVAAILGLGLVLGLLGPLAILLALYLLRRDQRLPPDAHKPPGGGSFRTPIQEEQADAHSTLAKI

T2: human OX40 with mouse CRD4 (human with mouse CRD4, UniProt P43489 29-277)
T2 construct: on ExpiCHO-S cells; also called OX40-CRD4mm; Shuffle 4
T2 chain: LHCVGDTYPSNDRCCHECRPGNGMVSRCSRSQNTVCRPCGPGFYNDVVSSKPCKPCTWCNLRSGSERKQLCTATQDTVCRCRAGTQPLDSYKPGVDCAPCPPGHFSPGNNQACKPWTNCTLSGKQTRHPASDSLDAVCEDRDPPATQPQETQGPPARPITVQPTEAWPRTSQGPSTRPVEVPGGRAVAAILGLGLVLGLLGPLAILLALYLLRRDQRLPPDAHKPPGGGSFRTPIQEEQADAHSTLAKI

T3: human OX40 with mouse CRD2 (human with mouse CRD2, UniProt P43489 29-277)
T3 construct: on ExpiCHO-S cells; also called OX40-CRD2mm; Shuffle 2
T3 chain: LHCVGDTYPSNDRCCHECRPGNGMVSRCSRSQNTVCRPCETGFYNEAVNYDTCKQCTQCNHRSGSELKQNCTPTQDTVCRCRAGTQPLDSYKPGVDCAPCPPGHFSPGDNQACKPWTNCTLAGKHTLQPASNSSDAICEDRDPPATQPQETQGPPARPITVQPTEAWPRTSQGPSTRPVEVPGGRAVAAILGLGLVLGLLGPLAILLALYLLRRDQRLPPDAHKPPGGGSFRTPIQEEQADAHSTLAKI

T4: recombinant cynomolgus monkey OX40 (Acro Biosystems, cat. no. OX0-C5220) (cynomolgus monkey (Macaca fascicularis), UniProt P43489 29-214 (human entry))
T4 construct: bought protein; also called Cyno OX40
T4 chain: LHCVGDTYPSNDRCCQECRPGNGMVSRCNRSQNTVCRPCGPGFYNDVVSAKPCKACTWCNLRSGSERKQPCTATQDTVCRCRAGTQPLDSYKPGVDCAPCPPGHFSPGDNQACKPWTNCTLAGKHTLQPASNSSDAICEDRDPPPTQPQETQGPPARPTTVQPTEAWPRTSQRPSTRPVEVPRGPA


What was measured:
[1] = molecular target: T1, human OX40 expressed on cells; experiment: flow cytometry, activated human CD8+ T cells, donor 2
Experimental: (§1) Healthy human donor PBMCs were purified essentially as described in Example 7. The cell concentration was adjusted to 2×10⁶ cells per mL (final concentration) in assay medium and plated in 6-well plates (Greiner, cat. no. 657160). PBMCs were stimulated with 0.3 μg/mL anti-CD3 ([…] Technologies, cat. no. 60011) and 0.5 μg/mL anti-CD28 antibodies (BioLegend, cat. no. 302934) and cultured for two days at 37° C., 5% CO₂. Next, the PBMCs were harvested, counted and brought to a concentration of 2×10⁶ cells per mL in FACS buffer 1 (DPBS with 2% heat-inactivated FBS and 2 mM ethylenediaminetetraacetic acid [EDTA]). […] After 60 min at RT, the cells were prepared for flow cytometric analyses. To this end, the cells were washed twice with 150 μL FACS buffer 1 and 30 μL/well cell-surface antibody mix (Table 9) in FACS buffer 1 containing antibody against human Fcγ antibody (Table 9) and fixable viability dye eFluor780 (1:1,500) was added. The staining procedures were carried out at 4° C. for 15-20 min protected from light. Stained cells were washed twice with 120-150 μL FACS buffer 1 (5 min, 460×g, RT) and resuspended in 60-100 μL FACS buffer 1 for direct flow cytometric analyses. Flow cytometric data were acquired on a FACSymphony A3 and analyzed with FlowJo software.

[2] = molecular target: T1, human OX40 expressed on cells; experiment: flow cytometry, activated human CD8+ T cells, mean of 3 donors; CD8+ T cells
Experimental: as §1

[3] = molecular target: T2, human OX40 with mouse CRD4; experiment: flow cytometry, transfected ExpiCHO-S cells, MFI at 5 µg/mL as % of IgG1-CD134-A4453
Experimental: (§2) The four shuffle constructs, as well as wild-type human and mouse OX40 were transiently expressed on ExpiCHO-S cells using the ExpiFectamine™ CHO Transfection Kit (ThermoFisher, cat. no. A29131), according to the manufacturer's protocol. […] Next, cells were washed twice in FACS buffer 1, were resuspended in a 30 μL solution of viability marker ToPro-3 (Invitrogen, cat. no. T3605, diluted 1:10,000) in FACS buffer 1 supplemented with 2 mM EDTA, and were analyzed on an iQue Screener Plus (Intellicyt Corporation, USA). Data were analyzed using FlowJo software and visualized using GraphPad Prism.

[4] = molecular target: T3, human OX40 with mouse CRD2; experiment: as above
Experimental: as §2

[5] = molecular target: T4, recombinant cynomolgus monkey OX40 …; experiment: BLI, Ab on AHC sensor, OX40 analyte; * binding observed, less reliable fit
Experimental: Experiments were carried out while shaking at 1,000 RPM at 30° C. […] Next, AHC sensors were loaded with antibody (1 μg/mL in Sample Diluent) for 600 s. After a baseline measurement in sample diluent (100 s), the association (200 s) and dissociation (1,000 s) of human OX40 (Acro Biosystems, cat. no. OX0-H5224), and cynomolgus monkey OX40 (Acro Biosystems, cat. no. OX0-C5220) was determined using a concentration range of 0.78 to 800 nM with 2-fold dilution steps.
The theoretical molecular masses of the antigens based on the amino acid sequences were used for calculations. For each antibody, a reference sensor was used which was incubated with Sample Diluent instead of antigen. AHC sensors were regenerated by exposure to 10 mM glycine buffer pH 1.7 for 5 s, followed by neutralization in Sample Diluent for 5 s; both steps were repeated twice. Subsequently sensors were loaded again with antibody for the next cycle of kinetic measurements.
Data were acquired using Data Acquisition Software v12.0 (Sartorius) and analyzed with Data Analysis Software v12.0 (Sartorius). Data traces were corrected per antibody by subtraction of the reference sensor. The Y-axis was aligned to the last 10 s of the baseline and Interstep Correction alignment to dissociation as well as Savitzky-Golay filtering were applied. Data traces with a response <0.05 nm were excluded from analysis. […] The data was fitted with the 1:1 model using a window of interest for the association of 200 s and dissociation times set at 50 s, 200 s and 1,000 s. The dissociation time was chosen based upon R² value, visual inspection of the curve and at least 5% signal decay during the dissociation step.

Row | EC50 [1] | EC50 [2] | binding result [3] | binding result [4] | Kd [5] | koff [5] | kon [5] | Binder
1 | 0.0163 µg/mL | 0.159 nM | binds | binds |  |  |  | IgG1-CD134-003-HC6LC2-P329R-E345R (antibody, humanized; human IgG1 with P329R and E345R (Eu numbering), kappa; also called IgG1-CD134-003-HC6LC2-RR) heavy: not shown light: AAVLTQSPSSLSASVGDRVTITCQSSQIVVNNNFLSWYQQKPGKAPKLLIYDASNLASGVPDRFSGSGSGTDFTFTISSLQPEDIATYYCLGGYDDDAENAFGGGTKVEIKRTVAAPSVFIFPPSDEQLKSGTASVVCLLNNFYPREAKVQWKVDNALQSGNSQESVTEQDSKDSTYSLSSTLTLSKADYEKHKVYACEVTHQGLSSPVTKSFNRGEC
2 |  |  |  |  | 180 nM | 0.018 s⁻¹ | 98000 M⁻¹ s⁻¹ | IgG1-CD134-012 (antibody, rabbit-human chimeric IgG1) heavy: not shown light: DIVMTQTPASVEAAVGGTVTIKCQASENIYSSLAWYQQKPGQPPKLLIYRTSTLASGVPSRFKGSGSGTQFTLTISDLESDDAATYYCQSYYHNSGGGYDYGFGGGTEVVAKRTVAAPSVFIFPPSDEQLKSGTASVVCLLNNFYPREAKVQWKVDNALQSGNSQESVTEQDSKDSTYSLSSTLTLSKADYEKHKVYACEVTHQGLSSPVTKSFNRGEC
